# Patent US12123009B2, “Methods and compositions for PPO herbicide tolerance in plants” (Monsanto Technology LLC, priority 2015, dated 2024)
# How the values were obtained:
# soybean plantlets = assay: High-throughput soybean screening for herbicide tolerance (plantlets); type: in vivo, soybean (A3555); design: key: 0 for poor tolerance, high damage, low green coloration; 1 for some tolerance, average damage, moderate green coloration; 2 for good tolerance, low damage, high green coloration; conditions: S-3100 spray five weeks post-transformation, scored day four
# Excerpt: A high-throughput plant transformation and screening method was used to evaluate large numbers of constructs in transgenic plants for herbicide tolerance in early transformation plantlet tissue. This allowed for faster and higher volume screening of construct configurations and PPO enzymes.
# This permitted the side-by-side comparison of seven different HemG PPO enzymes with thirty-seven different targeting peptides using the same promoter and 3′UTR elements for gene expression. These plant transformation constructs were used to transform soybean excised embryos (germplasm A3555) using A. tumefaciens and standard methods known in the art. Four hundred explants were inoculated for each construct resulting in twelve containers per construct. A sterile PPO herbicide solution was used for herbicide tolerance testing. The herbicide solution consisted of 0.3 g of S-3100 in crop oil concentrate (5.0 mL) and 495 mL of deionized water. This was filtered through a 0.45 micron Nalgene® Rapid-Flow™ Tissue Culture Filter Unit and Surfactant-Free Cellulose Acetate membrane filter unit (VWR, Radnor, PA, USA). The resulting sterile solution was shaken before application.
# At five weeks post-transformation, four of the twelve plant containers per construct were sprayed with two passes of the sterile PPO herbicide solution. The treated plantlets were then enclosed in the container and received at least 15 hours of light exposure post spray each day for four days. At the end of day four post application of S-3100, the treated plantlets were photographed and scored on a visual scale of green coloration (green coloration was representative of healthy photosynthetic plant tissue as compared to photo-bleached tissue) versus damage. The scoring values were 0 for poor tolerance, high damage, low green coloration; 1 for some tolerance, average damage, moderate green coloration; and 2 for good tolerance, low damage, high green coloration. The scoring for each construct is presented in Table 9, where n.d. indicates the analysis was not conducted.
# R0 soybean plants = assay: R0 transgenic soybean herbicide tolerance at eleven weeks; type: in vivo; conditions: R0 plants sprayed with S-3100 at eleven weeks, rated seven days after treatment
# Description: The plantlets in the non-sprayed containers corresponding to constructs having a score of 2 were transplanted at approximately 7 weeks post transformation and grown as R0 plants using standard methods known in the art. Plantlets corresponding to non-tolerant scores of 0 and 1 were also grown to serve as negative controls. The R0 plants were grown in a greenhouse under long-day nursery conditions (18 hr light at 80° F. then 6 hr dark at 74° F.) for approximately four weeks. At eleven weeks, the R0 plants were sprayed with two passes of the same herbicide solution (0.3 g of 5-3100) described above. Herbicide injury ratings were collected seven days after treatment.
# The results of the herbicide tolerance application at eleven weeks to the R0 plants confirmed the low percent injury rating scores observed in the high-throughput screen at five weeks. Any injury rating of 30% or above was equivalent to non-transgenic soybean injury ratings. A few of the constructs stood out as providing very good tolerance to the herbicide application. […] Data are provided in Table 10, where n.d. indicates the analysis was not conducted.
# transgenic maize plants = assay: R0 transgenic maize 40 g/ha S-3100 spray test; type: in vivo; conditions: for Average Injury / Highly Tolerant (number of plants with less than 10% injury): 40 grams/ha S-3100 at V5, 7 days after treatment, R0 plants; for injury rates when expressed in transgenic plants (crop tolerance to a PPO herbicide): R0 transgenic maize data
# Excerpt: H_N60 (SEQ ID NO:3). […] These five constructs had the same promoter plus leader plus intron combination, with two different targeting peptide (TP) sequences, and the same 3′UTR sequence. Leaf samples were taken from the R0 plants and analyzed by PCR to determine the transgene copy number. Single copy plants for up to 12 unique events per construct were transplanted to pots, selfed and outcrossed to generate R1 and F1 seed, respectively, for future testing. Multi-copy plants and extra single copy plants were sprayed with 40 grams/ha 5-3100 at approximately the V5 growth stage and injury ratings were taken 7 days after treatment. The average percent (%) injury for all plants expressing each PPO enzyme and the number of plants that were deemed highly tolerant (less than 10% injury) was noted, where each plant is a unique single or multi-copy transformant.
molecule,measurement,setting,value
"H_N50: microbial HemG protoporphyrinogen oxidase, SEQ ID NO:7 (SEQ ID NO:16 lacking start methionine) (protein, listed as Shimwellia blattae) MKTLILFSTRDGQTHKIARHIAGVLEEQGKACELVDLLQPGEPDWSTVECVVLGASIRYGHFHKSFIRFVNTHAQRLNNMPGALFTVNLVARKPEKQSPQTNSYTRKFLAASPWQPQRCQVFAGALRYPRYSWYDRMMIRLIMKMAGGETDTRKEVEYTDWQSVTRFAREIAQLPGETR",coloration score,soybean plantlets; TP9,1
same,coloration score,soybean plantlets; TP10,1
same,coloration score,soybean plantlets; TP11,0
same,coloration score,soybean plantlets; TP12,1
same,coloration score,soybean plantlets; TP13,1
same,coloration score,soybean plantlets; TP14,1
same,coloration score,soybean plantlets; TP15,2
same,coloration score,soybean plantlets; TP16,0
same,coloration score,soybean plantlets; TP17,1
same,coloration score,soybean plantlets; TP18,1
same,coloration score,soybean plantlets; TP19,0
same,coloration score,soybean plantlets; TP21,1
same,coloration score,soybean plantlets; TP22,2
same,coloration score,soybean plantlets; TP23,1
same,coloration score,soybean plantlets; TP24,1
same,coloration score,soybean plantlets; TP25,2
same,coloration score,soybean plantlets; TP26,1
same,coloration score,soybean plantlets; TP27,1
same,coloration score,soybean plantlets; TP28,1
same,coloration score,soybean plantlets; TP29,1
same,coloration score,soybean plantlets; TP30,1
same,coloration score,soybean plantlets; TP31,0
same,coloration score,soybean plantlets; TP32,1
same,coloration score,soybean plantlets; TP33,1
same,coloration score,soybean plantlets; TP34,0
same,coloration score,soybean plantlets; TP36,0
same,coloration score,soybean plantlets; TP37,0
same,percent injury score,R0 soybean plants; TP9,40%
same,percent injury score,R0 soybean plants; TP13,40%
same,percent injury score,R0 soybean plants; TP14,40%
same,percent injury score,R0 soybean plants; TP15,40%
same,percent injury score,R0 soybean plants; TP17,40%
same,percent injury score,R0 soybean plants; TP22,40%
same,percent injury score,R0 soybean plants; TP25,35%
"H_N100: microbial HemG protoporphyrinogen oxidase, SEQ ID NO:9 (SEQ ID NO:17 lacking start methionine; variant 20) (protein, listed as Enterobacter cloacae) MKTLILFSTRDGQTREIAAFLASELKEQGIYADVINLNRTEEIAWQEYDRVVIGASIRYGHFHPAVDRFVKKHTETLNSLPGAFFSVNLVARKAEKRTPQTNSYTRKFLLNSPWKPAACAVFAGALRYPRYRWYDRFMIRLIMKMTGGETDTRKEVVYTDWSQVASFAREIVQLTRSSRL",coloration score,soybean plantlets; TP9,0
same,coloration score,soybean plantlets; TP10,1
same,coloration score,soybean plantlets; TP11,0
same,coloration score,soybean plantlets; TP12,2
same,coloration score,soybean plantlets; TP13,0
same,coloration score,soybean plantlets; TP14,1
same,coloration score,soybean plantlets; TP15,2
same,coloration score,soybean plantlets; TP16,1
same,coloration score,soybean plantlets; TP17,1
same,coloration score,soybean plantlets; TP18,1
same,coloration score,soybean plantlets; TP19,1
same,coloration score,soybean plantlets; TP20,2
same,coloration score,soybean plantlets; TP21,0
same,coloration score,soybean plantlets; TP22,2
same,coloration score,soybean plantlets; TP23,2
same,coloration score,soybean plantlets; TP24,0
same,coloration score,soybean plantlets; TP25,1
same,coloration score,soybean plantlets; TP27,1
same,coloration score,soybean plantlets; TP28,1
same,coloration score,soybean plantlets; TP29,1
same,coloration score,soybean plantlets; TP30,1
same,coloration score,soybean plantlets; TP31,1
same,coloration score,soybean plantlets; TP32,2
same,coloration score,soybean plantlets; TP33,1
same,coloration score,soybean plantlets; TP34,0
same,coloration score,soybean plantlets; TP35,1
same,coloration score,soybean plantlets; TP36,1
same,percent injury score,R0 soybean plants; TP10,35%
same,percent injury score,R0 soybean plants; TP12,50%
same,percent injury score,R0 soybean plants; TP15,30%
same,percent injury score,R0 soybean plants; TP20,35%
same,percent injury score,R0 soybean plants; TP22,30%
same,percent injury score,R0 soybean plants; TP23,35%
same,percent injury score,R0 soybean plants; TP28,35%
same,percent injury score,R0 soybean plants; TP29,40%
same,percent injury score,R0 soybean plants; TP32,40%
same,percent injury score,R0 soybean plants; TP35,35%
"H_N60: microbial HemG protoporphyrinogen oxidase, SEQ ID NO:3 (protein, listed as Pantoea stewardii) MKALILYSTRDGQTRKIASSIADVIRQQQQCDVLNIKDASLPDWAQYDRVLIGASIRYGHFQPVVDKFVKQHLHELQQRTSGFFSVNLTARKPEKRSPETNAYTQKFLAHSPWQPDCCAVFAGALYYPRYRWFDRVMIQLIMRMTGGETDSTKEVEYTDWQQVSTFANDFAQLPGKS",Average Injury,transgenic maize plants,55.8%
same,Highly Tolerant (number of plants with less than 10% injury),transgenic maize plants,19
same,injury rates when expressed in transgenic plants (crop tolerance to a PPO herbicide),transgenic maize plants,reduced injury rates
"H_N110: microbial HemG protoporphyrinogen oxidase, SEQ ID NO:10 (protein, listed as Enterobacter mori) MKILILFSTRDGQTREIAASLASELKEQAFDVDVVNLHRAENIAWEEYDGVVIGASIRYGHFHSTLNSFVKKHQQALKKLPGAFYSVNLVARKPEKRTPQTNSYTRKFLLDSPWQPDLSAVFAGALRYPRYNWYDRIMIRLIMKITGGETDTRKEVVYTDWQQVTHFAHEIVQLVRK",Average Injury,transgenic maize plants,43.0%
same,Highly Tolerant (number of plants with less than 10% injury),transgenic maize plants,did not produce any highly tolerant plants
same,injury rates when expressed in transgenic plants (crop tolerance to a PPO herbicide),transgenic maize plants,reduced injury rates
